Measurements from patent US20160130575, “SCREENING OF NUCLEIC ACID AGENTS VIA PARTICLE DISPLAY” (THE REGENTS OF THE UNIVERSITY OF CALIFORNIA, published 2016).

What was measured:
alpha-thrombin = alpha-thrombin (Homo sapiens, UniProt P00734;P00734 P00734:328-363,P00734:364-622); experiment: flow; FP-only particle negative control, 20 pM thrombin
[1] = biological target: Plasminogen activator inhibitor-1 (PAI-1) (Homo sapiens, UniProt P05121 P05121:24-402); experiment: flow; FP-only particle negative control, 1 nM PAI-1; details: tags: His6; biotinylated (NHS-PEO4); Millipore
[2] = biological target: 4-1BB/TNFRSF9/CD137 Fc chimera (Homo sapiens, UniProt Q07011 Q07011:24-186); experiment: flow; FP-only particle negative control, 4 nM 4-1BB; details: tags: Fc fusion; His6; biotinylated (NHS-PEO4); R&D Systems; chain copies: 2
[3] = biological target: Apolipoprotein E3 (ApoE3) (Homo sapiens, UniProt P02649 P02649:19-317); experiment: flow; FP-only particle negative control, 3 nM ApoE; details: tags: His6; biotinylated (NHS-PEO4); R&D Systems

Measured: binding result

Chain of Apolipoprotein E3 (ApoE3) (P02649 19-317, one chain of several): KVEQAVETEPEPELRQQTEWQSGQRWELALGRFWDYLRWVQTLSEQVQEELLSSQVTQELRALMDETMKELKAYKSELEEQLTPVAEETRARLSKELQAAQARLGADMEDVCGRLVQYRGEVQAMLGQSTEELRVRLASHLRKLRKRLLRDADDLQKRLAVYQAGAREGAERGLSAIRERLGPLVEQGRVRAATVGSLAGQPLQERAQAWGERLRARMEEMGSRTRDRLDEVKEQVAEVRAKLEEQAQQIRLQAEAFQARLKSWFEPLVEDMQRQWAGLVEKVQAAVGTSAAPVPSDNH
Chain of 4-1BB/TNFRSF9/CD137 Fc chimera (Q07011 24-186, change not shown, one chain of several): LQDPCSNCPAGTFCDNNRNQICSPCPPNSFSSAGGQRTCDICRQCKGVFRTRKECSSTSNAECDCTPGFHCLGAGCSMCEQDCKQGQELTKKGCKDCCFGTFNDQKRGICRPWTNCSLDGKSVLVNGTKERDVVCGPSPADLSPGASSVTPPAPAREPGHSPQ
Chain of Plasminogen activator inhibitor-1 (PAI-1) (P05121 24-402, one chain of several): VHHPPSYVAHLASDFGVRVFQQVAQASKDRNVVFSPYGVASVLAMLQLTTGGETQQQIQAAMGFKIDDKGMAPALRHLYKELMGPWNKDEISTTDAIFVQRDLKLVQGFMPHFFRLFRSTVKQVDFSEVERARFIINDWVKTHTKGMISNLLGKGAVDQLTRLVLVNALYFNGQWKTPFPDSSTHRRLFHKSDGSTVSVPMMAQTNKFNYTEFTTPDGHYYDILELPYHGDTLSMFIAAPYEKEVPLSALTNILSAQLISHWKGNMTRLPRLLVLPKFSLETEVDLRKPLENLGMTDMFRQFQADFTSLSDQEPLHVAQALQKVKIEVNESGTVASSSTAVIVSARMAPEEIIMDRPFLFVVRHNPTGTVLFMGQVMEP

AGCAGCACAGAGGTCAGATG (ssDNA, 5'-amino-PEG18, coupled to magnetic particle) [Forward primer (FP) control]
no binding: all assays above
